Laboratory results from US20040191812, “Target-dependent transcription using deletion mutants of N4 RNA polymerase” (published 2004).

How the values were obtained:
[1] = molecular target: N4 mini-vRNAP K670A K670A (mini-vRNAP numbering) (Bacteriophage N4) (UniProt Q859P9); experiment: filter; details: wild-type affinity; method inferred
[2] = molecular target: T1, N4 mini-vRNAP (His-tagged) (Bacteriophage N4, UniProt Q859P9 SEQ:34-1143); experiment: filter; wild-type affinity; UV crosslinks; details: tags: N-terminal hexahistidine (pBAD); label: 32P end-label; hairpin
T1 chain: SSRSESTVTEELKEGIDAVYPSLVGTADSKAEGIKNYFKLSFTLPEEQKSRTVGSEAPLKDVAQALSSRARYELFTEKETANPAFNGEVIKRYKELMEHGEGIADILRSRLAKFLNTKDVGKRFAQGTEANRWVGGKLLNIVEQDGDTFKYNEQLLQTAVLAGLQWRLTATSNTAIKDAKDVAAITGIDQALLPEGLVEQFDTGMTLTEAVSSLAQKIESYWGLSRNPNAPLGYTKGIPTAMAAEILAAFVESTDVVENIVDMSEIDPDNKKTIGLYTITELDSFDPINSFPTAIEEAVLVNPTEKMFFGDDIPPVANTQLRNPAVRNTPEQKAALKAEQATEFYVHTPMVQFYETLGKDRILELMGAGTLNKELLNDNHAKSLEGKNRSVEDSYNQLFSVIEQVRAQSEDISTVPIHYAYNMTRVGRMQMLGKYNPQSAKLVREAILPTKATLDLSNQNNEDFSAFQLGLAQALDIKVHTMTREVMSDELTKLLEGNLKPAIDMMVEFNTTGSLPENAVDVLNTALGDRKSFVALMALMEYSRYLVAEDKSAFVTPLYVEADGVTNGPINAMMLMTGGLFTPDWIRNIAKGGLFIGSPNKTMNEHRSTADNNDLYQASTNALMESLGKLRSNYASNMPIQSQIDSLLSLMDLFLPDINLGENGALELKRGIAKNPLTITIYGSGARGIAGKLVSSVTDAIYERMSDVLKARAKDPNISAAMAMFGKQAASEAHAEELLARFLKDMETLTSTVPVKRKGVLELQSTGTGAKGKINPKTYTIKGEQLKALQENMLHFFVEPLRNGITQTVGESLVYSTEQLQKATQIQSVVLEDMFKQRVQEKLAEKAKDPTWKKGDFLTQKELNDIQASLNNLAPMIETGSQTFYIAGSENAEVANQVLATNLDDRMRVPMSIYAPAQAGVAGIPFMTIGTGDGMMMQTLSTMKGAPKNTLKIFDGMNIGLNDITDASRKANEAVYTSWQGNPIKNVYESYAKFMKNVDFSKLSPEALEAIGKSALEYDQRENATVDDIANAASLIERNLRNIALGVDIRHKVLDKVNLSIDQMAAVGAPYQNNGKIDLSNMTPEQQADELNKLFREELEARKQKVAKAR
Description: To study the sequence determinants of promoter binding, 20 base-long promoter oligonucleotides, containing the wild-type vRNAP promoter P2 sequence and substituted at every position with a single 5-Iodo-dU, were used. Whenever substitutions were made in the stem, the corresponding pairing base was changed to A. These oligonucleotides were ³²P end-labeled and used to determine the enzyme's affinity for promoter DNAs by a filter binding assay and the ability to crosslink to mini-vRNAP upon UV irradiation at 320 nm.

N4 mini-vRNAP Y678F = molecular target: T2, N4 mini-vRNAP Y678F (Bacteriophage N4, UniProt Q859P9 SEQ:34-1143); experiment: UV crosslinking as well as wild type; details: tags: N-terminal hexahistidine (pBAD); label: 32P end-label; hairpin
T2 chain: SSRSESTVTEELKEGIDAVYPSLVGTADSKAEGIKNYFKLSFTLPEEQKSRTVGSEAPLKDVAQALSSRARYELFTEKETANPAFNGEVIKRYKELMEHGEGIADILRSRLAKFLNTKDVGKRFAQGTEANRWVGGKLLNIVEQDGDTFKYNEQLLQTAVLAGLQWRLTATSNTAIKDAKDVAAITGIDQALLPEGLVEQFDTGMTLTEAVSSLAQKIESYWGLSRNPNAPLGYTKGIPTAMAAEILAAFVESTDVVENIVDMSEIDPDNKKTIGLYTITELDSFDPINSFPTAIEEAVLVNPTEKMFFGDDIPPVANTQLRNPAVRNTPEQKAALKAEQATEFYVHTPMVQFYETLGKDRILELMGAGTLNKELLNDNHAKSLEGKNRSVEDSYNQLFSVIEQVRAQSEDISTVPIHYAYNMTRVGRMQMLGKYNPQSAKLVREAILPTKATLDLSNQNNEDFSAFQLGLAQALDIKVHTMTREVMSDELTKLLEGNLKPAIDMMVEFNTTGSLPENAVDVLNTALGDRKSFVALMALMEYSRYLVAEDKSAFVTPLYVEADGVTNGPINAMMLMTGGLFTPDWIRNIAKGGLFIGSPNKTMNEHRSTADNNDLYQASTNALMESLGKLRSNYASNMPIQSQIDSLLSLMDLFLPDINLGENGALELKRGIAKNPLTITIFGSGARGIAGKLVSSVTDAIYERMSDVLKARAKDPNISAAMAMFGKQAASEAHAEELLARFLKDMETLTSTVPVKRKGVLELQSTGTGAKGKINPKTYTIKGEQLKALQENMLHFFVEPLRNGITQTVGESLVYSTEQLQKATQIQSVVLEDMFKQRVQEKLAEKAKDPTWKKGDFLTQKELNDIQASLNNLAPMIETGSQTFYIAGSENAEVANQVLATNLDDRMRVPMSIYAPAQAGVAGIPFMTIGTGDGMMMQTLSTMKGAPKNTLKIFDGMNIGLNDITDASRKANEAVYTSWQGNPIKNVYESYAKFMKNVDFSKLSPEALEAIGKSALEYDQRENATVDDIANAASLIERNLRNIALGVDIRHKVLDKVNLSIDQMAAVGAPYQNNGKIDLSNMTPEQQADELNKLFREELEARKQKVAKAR

TCCAAAAGAAGCGGAGCTTC [P2 wild-type 20-mer promoter oligo]
binding signal (fold of wild type) [1]: 1

TCTAAAAGAAGCGGAGCTTC (ssDNA, 5-iodo-dU at +1 [3 (5-iodo-dU, promoter position +1)]) [P2 5-IdU at +1]
binding result [2]: binds

TTCAAAAGAAGCGGAGCTTC (ssDNA, 5-iodo-dU at +2 [2 (5-iodo-dU, promoter position +2)]) [P2 5-IdU at +2]
binding result [2]: binds

TCCAAAAGAAGCGTAGCTTC (ssDNA, 5-iodo-dU at -11 [14 (5-iodo-dU, promoter position -11)]) [P2 5-IdU at -11]
binding result (N4 mini-vRNAP Y678F): binds

TCCAAAAGAAGCGGAGCTTC (ssDNA, 5-iodo-dU at +3 [1 (5-iodo-dU, promoter position +3)]) [P2 5-IdU at +3]
binding result [2]: binds | binding result (N4 mini-vRNAP Y678F): binds
